Source: publication PMC3433589 (Biochemistry, 2012)

T1: human Glutaminase Interacting Protein (GIP) (human, UniProt O14907 1-124)
T1 sequence (looked up): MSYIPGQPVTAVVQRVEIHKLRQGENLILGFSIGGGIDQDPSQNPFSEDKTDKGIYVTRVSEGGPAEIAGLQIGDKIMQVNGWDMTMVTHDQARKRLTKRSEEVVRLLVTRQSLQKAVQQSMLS


Assays:
[1] = biological target: T1, human Glutaminase Interacting Protein …; assay: phage display selection
[2] = biological target: T1, human Glutaminase Interacting Protein …; assay: NMR titration

| Binder | binding result [1] | binding result [2] |
| --- | --- | --- |
| GSSLDVTDN [phage clone displaying GSSLDVTDN] | binds |  |
| GYETSLDSN [phage clone displaying GYETSLDSN] | binds |  |
| DSNLDVSVE [phage clone displaying DSNLDVSVE] | binds |  |
| VSNLDTTND [phage clone displaying VSNLDTTND] | binds |  |
| GTNLDGNGD [phage clone displaying GTNLDGNGD] | binds |  |
| GSMNLDVQS [phage clone displaying GSMNLDVQS] | binds |  |
| GGNLDVNVG [phage clone displaying GGNLDVNVG] | binds |  |
| DGNLDSYDN [phage clone displaying DGNLDSYDN] | binds |  |
| GSGTDLDAS [phage clone displaying GSGTDLDAS] | binds |  |
| ESSVDLLDG [phage clone displaying ESSVDLLDG] | binds |  |
| GSSSVDVDG [phage clone displaying GSSSVDVDG] | binds |  |
| GSSLDVTDN [GSSLDVTDN peptide (synthetic)] |  | binds |
| AISSVDSMG [phage clone displaying AISSVDSMG] | binds |  |
| ASSSVDDMA [ASSSVDDMA peptide (synthetic)] |  | binds |
| ESSVDLLDG [ESSVDLLDG peptide (synthetic)] |  | binds |
| GSGTDLDAS [GSGTDLDAS peptide (synthetic)] |  | binds |
| ESSVDMIGD [phage clone displaying ESSVDMIGD] | binds |  |
| GSSVDLVGD [phage clone displaying GSSVDLVGD] | binds |  |
| AYESSVDDN [phage clone displaying AYESSVDDN] | binds |  |
| ASSSVDDMA [phage clone displaying ASSSVDDMA] | binds |  |
| GSSLDVTSE [phage clone displaying GSSLDVTSE] | binds |  |
